From US20060253917A1 (published 2006)
Each block holds one binder with its values, some of them ahead of it.

Key:
Os003118-3674 aa 75-149 = molecular target: T1, Os003118-3674 aa 75-149 (Oryza sativa, UniProt Q84VG0 75-148); assay: Y2H; output trait library
T1 construct: bait, Gal4 DBD fusion; also called PN20551
T1 sequence: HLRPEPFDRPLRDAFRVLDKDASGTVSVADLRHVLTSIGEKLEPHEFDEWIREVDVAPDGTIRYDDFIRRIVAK
In short: (§1)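 Myriad Genetics Inc. (Salt Lake City, Utah) supplied the automated, high-throughput yeast two-hybrid assay used to detect protein-protein interactions. A bait clone encoding a defined amino-acid fragment of a rice protein was screened against a rice prey library, either the input trait or the output trait library. To identify the interacting proteins, prey clones were retrieved and their encoding sequences were compared against databases by BLAST.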

Os008938-3209 aa 53-259 = molecular target: T2, Os008938-3209 aa 53-259 (Oryza sativa, UniProt Q06967 53-259); assay: Y2H; input trait library
T2 construct: prey, AD fusion; also called PN20215; O. sativa Putative 14-3-3 Protein
T2 sequence: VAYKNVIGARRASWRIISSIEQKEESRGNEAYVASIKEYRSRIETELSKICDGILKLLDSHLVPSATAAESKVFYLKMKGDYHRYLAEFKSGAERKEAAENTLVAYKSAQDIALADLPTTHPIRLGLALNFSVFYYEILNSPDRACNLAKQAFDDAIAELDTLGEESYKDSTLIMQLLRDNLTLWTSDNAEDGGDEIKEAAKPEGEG
In short: as §1

OsPN22154 aa 390-562 = molecular target: T3, OsPN22154 aa 390-562 (Oryza sativa, UniProt Q6Z6L4 390-562); assay: Y2H; input trait library
T3 construct: prey, AD fusion; also called Novel Protein PN22154, Similar to A. thaliana Glutamyl Aminopeptidase
T3 sequence: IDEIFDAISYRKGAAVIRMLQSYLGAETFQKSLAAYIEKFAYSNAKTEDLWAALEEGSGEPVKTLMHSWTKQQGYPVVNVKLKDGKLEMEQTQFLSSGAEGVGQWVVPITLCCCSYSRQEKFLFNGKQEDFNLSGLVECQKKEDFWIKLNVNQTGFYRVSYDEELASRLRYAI
In short: as §1

OsCS aa 411-489 = molecular target: T4, OsCS aa 411-489 (Oryza sativa, UniProt A2Y0X2 411-489); assay: Y2H; input trait library
T4 construct: prey, AD fusion; also called PN19707; O. sativa Cellulose Synthase Catalytic Subunit, RSW1-Like
T4 sequence: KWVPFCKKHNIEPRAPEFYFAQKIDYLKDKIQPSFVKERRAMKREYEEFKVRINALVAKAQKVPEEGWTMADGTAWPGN
In short: as §1

OsCATA aa 332-433 = molecular target: T5, OsCATA aa 332-433 (Oryza sativa, UniProt P0C549 332-433); assay: Y2H; input trait library
T5 construct: prey, AD fusion; also called PN20899; O. sativa Catalase A Isozyme
T5 sequence: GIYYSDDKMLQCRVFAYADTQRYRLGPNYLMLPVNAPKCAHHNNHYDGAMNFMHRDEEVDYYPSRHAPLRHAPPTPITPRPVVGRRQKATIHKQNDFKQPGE
In short: as §1

[1] = molecular target: T6, OsERP (PN20696) aa 23-120 (Oryza sativa, UniProt Q0JBH9 23-120); assay: Y2H; output trait library
T6 construct: bait, Gal4 DBD fusion; also called Elicitor responsive protein
T6 sequence: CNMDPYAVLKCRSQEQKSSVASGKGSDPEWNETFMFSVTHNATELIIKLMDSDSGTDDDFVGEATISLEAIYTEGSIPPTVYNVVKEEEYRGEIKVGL
In short: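 Protein interactions were tested in an automated, high-throughput yeast two-hybrid screen supplied by Myriad Genetics Inc. Fragments of rice proteins, defined by amino-acid range, served as bait against rice prey clone libraries. Interacting prey clones were retrieved from the output trait library. The sequences encoding the retrieved fragments were compared by BLAST analysis against databases to identify the full-length genes. Each value records whether an interaction was detected.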

OsS49462 aa 1-100 = molecular target: T7, OsS49462 aa 1-100 (Oryza sativa, UniProt Q01J96 179-278); assay: Y2H; input trait library
T7 construct: bait, Gal4 DBD fusion; also called PN20325; O. sativa Cyclin OsS49462, Fragment
T7 sequence: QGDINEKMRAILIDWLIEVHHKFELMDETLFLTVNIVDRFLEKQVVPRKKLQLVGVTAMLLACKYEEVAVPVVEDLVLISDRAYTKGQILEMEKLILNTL
In short: as §1

OsCS aa 316-583 = molecular target: T8, OsCS aa 316-583 (Oryza sativa, UniProt A2Y0X2 316-583); assay: Y2H; input trait library
T8 construct: bait, Gal4 DBD fusion; also called PN19707
T8 sequence: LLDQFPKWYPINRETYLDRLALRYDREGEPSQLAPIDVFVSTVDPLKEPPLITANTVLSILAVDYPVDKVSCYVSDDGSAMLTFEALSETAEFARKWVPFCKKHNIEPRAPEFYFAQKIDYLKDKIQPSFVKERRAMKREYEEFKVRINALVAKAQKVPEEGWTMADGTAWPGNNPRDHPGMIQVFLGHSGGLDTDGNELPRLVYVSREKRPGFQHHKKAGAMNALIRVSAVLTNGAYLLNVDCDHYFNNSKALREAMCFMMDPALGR
In short: as §1

B1: OsPN23878 aa 824-935 (other)
chain: SLARKHRAAIILQRNLKCWLARRYFVNIRKASVVIQSGIRGCLVRRCAGNVDLLNVLREFESKKEAEGDQILIKASFLAELQRRILKAEATVREKDEENEMLQQRLQQYENR
notes: prey, AD fusion
binding result (Os003118-3674 aa 75-149): binds

B2: OsCAA90866 aa 100-250 (other)
chain: GEMTERVAQEDRIPVLKASQDHLKEFISICEALELISEDELEISRQKNLIPWQIEEHRRLHGSSAKRLQKQSSRIKERKERRRRHESSCLSAPIELGGDLLRMMEKEREGMVSYYLIGSIEGFDLLDMLKKEEEIVPAVKEGKRRMVMHLL
notes: bait, Gal4 DBD fusion; also called PN20311; O. sativa Chilling-Inducible Protein CAA90866
binding result (Os008938-3209 aa 53-259): binds

B3: OsCHIB1 aa 10-200 (enzyme)
chain: YIGAQFTGVRFSDVPVNPGLSFHFILAFAIDYFMATQSSKPAPANGVFAPYWDTANLSPAAVAAAKAAHPNLSVILALGGDTVQNTGVNATFAPTSSVDAWVRNAADSVSGLIDAYGLDGVDVDYEHFAAGVDTFVECIGRLLTELKARHPNIATSIAPFEHPVVQRYYQPLWRRYAGVIDYVNFQFYGYG
notes: bait, Gal4 DBD fusion; also called PN19651; O. sativa Chitinase, Class III
binding result (OsPN22154 aa 390-562): binds
binding result (OsCS aa 411-489): binds
binding result (OsCATA aa 332-433): binds

B4: PN31085 aa 378-553 (other)
chain: NGTISDSLGNLSELSDINLIGNNLTGHVPDSLTSLRLLQKLDLSGNDLTGPLPTFSPSVKVNVTGNLNFNGTAPGSAPSKDTPGSSSSRAPTLPGQGVLPENKKKRSAVVLATTIPVAVSVVALASVCAVLIFRKKRGSVPPNAASVVVHPRENSDPDNLVKIVMVNNDGNSSSTQ
notes: prey, AD fusion; also called Receptor-like protein kinase-like
binding result [1]: binds

Continued, values first:

binding result (OsS49462 aa 1-100): binds
B5: OsPN30848 aa 365-476 (other)
chain: DCSLAKPPAADKKDDRVPLPSSNGAPLLPSYPPLGYGIMSVPGAYGAAPASTAQPMLYAPRAPPGAAMVPMMLPDGRLVYVVQQPGGQLPLASPPPQQAGHRSGSGGRHGGS
notes: prey, AD fusion

binding result (OsCS aa 316-583): binds
B6: OsCS aa 316-582 (other)
chain: LLDQFPKWYPINRETYLDRLALRYDREGEPSQLAPIDVFVSTVDPLKEPPLITANTVLSILAVDYPVDKVSCYVSDDGSAMLTFEALSETAEFARKWVPFCKKHNIEPRAPEFYFAQKIDYLKDKIQPSFVKERRAMKREYEEFKVRINALVAKAQKVPEEGWTMADGTAWPGNNPRDHPGMIQVFLGHSGGLDTDGNELPRLVYVSREKRPGFQHHKKAGAMNALIRVSAVLTNGAYLLNVDCDHYFNNSKALREAMCFMMDPALG
notes: prey, AD fusion; also called PN19707
